Common to all, as to test: SPR
The target of data set [1] is T1, GkDnaC R330A (Geobacillus kaustophilus HTA426, UniProt Q5KU75 1-454, R330A).
T1 sequence: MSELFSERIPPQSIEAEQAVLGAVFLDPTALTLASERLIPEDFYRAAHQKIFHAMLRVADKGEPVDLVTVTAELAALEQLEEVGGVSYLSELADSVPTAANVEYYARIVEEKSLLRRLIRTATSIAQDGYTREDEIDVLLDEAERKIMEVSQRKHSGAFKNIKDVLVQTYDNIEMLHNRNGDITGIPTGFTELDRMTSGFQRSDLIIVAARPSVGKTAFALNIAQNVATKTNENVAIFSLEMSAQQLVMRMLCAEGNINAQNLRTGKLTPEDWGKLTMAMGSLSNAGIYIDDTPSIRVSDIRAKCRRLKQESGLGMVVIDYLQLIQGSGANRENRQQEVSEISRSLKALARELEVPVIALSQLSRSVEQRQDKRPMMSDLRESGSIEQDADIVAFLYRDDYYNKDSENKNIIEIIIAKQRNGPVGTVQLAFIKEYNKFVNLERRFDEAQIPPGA

For data set [2], the target named is T2, GkDnaC R145K146A double mutant (Geobacillus kaustophilus HTA426, UniProt Q5KU75 1-454, R145A;K146A).
T2 sequence: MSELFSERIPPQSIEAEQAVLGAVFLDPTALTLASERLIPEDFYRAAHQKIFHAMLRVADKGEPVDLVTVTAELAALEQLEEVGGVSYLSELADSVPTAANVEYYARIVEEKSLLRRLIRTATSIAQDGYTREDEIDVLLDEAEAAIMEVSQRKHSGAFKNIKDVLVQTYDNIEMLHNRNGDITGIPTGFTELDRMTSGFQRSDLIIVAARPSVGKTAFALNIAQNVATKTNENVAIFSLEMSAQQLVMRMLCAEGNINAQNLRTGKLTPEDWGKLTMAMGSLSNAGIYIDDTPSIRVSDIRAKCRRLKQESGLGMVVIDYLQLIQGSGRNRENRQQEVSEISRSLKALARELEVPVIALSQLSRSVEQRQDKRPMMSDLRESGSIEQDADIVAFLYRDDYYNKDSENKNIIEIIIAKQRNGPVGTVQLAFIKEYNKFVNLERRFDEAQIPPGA

Data set [3] concerns the target T3, GkDnaC R117A (Geobacillus kaustophilus HTA426, UniProt Q5KU75 1-454, R117A).
T3 sequence: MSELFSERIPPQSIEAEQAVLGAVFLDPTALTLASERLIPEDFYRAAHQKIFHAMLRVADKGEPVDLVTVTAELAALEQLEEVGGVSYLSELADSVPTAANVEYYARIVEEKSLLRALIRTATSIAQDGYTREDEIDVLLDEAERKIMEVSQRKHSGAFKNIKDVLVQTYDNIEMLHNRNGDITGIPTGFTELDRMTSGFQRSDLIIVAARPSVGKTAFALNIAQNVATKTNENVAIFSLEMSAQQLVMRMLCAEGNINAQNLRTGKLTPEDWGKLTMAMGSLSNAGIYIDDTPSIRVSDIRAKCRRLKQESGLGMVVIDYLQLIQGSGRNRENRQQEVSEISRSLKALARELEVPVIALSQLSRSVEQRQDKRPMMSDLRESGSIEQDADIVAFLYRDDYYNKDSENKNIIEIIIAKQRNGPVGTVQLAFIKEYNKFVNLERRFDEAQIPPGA

Data set [4] deals with T4, GkDnaC R120A (Geobacillus kaustophilus HTA426, UniProt Q5KU75 1-454, R120A).
T4 sequence: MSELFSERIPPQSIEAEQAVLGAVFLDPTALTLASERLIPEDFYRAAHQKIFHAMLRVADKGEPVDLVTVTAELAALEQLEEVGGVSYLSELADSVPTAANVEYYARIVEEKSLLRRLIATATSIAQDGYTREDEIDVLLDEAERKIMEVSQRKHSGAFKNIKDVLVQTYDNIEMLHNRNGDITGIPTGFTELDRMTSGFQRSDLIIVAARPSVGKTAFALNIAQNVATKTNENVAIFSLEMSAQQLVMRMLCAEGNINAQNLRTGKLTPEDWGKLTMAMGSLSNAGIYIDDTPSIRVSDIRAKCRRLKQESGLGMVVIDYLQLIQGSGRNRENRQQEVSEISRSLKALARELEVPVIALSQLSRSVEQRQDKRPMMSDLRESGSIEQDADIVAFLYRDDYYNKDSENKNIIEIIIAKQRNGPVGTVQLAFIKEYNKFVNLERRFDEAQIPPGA

B1: 5'Bio-(dT)30 (ssDNA)
DNA: TTTTTTTTTTTTTTTTTTTTTTTTTTTTTT
For orientation: Kd means the constant that tells how readily two partners part at equilibrium. A higher Kd goes with a looser complex. For the molecule B1, the Kd in data set [1] worked out at 17.8 µM; in data set [2], 27 µM; in data set [3], 1.47 µM; in data set [4] it was 1.73 µM.

The record behind these values is publication PMC2647316 (Nucleic Acids Research, 2008).
